The record followed here is US20220259288A1 (LA JOLLA INSTITUTE FOR ALLERGY AND IMMUNOLOGY, published 2022).

The chains are these.
T1: HLA-DP DPB1*02:01 (human)
T1 chain 1: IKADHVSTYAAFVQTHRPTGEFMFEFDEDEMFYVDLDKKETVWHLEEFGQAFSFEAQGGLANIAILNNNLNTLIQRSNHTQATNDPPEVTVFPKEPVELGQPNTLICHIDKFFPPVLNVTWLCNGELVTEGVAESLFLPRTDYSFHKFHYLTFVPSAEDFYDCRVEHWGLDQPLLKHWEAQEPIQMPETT
T1 chain 2: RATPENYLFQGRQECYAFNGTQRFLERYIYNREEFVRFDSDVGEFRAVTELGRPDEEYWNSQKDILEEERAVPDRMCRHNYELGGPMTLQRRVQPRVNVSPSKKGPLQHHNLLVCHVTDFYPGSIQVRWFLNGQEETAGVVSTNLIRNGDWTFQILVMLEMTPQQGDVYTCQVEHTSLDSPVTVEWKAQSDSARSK

T2: HLA-DP DPB1*04:01 (human)
T2 chain 1: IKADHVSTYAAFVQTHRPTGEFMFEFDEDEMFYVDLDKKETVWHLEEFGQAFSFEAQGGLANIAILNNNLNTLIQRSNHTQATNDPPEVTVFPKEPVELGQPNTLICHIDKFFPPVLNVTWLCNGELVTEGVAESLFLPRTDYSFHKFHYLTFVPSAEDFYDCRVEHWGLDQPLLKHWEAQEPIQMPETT
T2 chain 2: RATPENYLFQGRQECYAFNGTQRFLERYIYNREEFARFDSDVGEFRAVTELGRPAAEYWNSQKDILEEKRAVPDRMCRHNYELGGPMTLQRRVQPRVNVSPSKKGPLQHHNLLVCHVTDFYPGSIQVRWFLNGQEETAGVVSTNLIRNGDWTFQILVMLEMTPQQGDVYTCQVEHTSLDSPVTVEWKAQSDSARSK

B1: ApoB100 peptide 3563.0018 (peptide)
peptide: SLFFSAQPFEITAST
notes: also called p18
B2: ApoB100 peptide 3563.0019 (peptide)
peptide: GKIDFLNNYALFLSP
B3: ApoB100 peptide 3563.0016 (peptide)
peptide: GKLYSILKIQSPLFT
B4: ApoB100 peptide 3563.0003 (peptide)
peptide: QELLDIANYLMEQIQ
B5: ApoB100 peptide 3563.0007 (peptide)
peptide: VEFVTNMGIIIPDFA
notes: agrees with the claims
B6: ApoB100 peptide 3563.0006 (peptide)
peptide: FLHYIFMENAFELPT
B7: ApoB100 peptide 3563.0014 (peptide)
peptide: HVKHFVINLIGDFEV
B8: ApoB100 peptide 3563.0029 (peptide)
peptide: IDLSIQNYHTFLIYI
B9: ApoB100 peptide 3563.0022 (peptide)
peptide: YKKLRTSSFALNLPT
B10: ApoB100 peptide 3563.0015 (peptide)
peptide: LIINWLQEALSSASL
notes: agrees with the claims
B11: ApoB100 peptide 3563.0030 (peptide)
peptide: FLIYITELLKKLQST
B12: ApoB100 peptide 3563.0021 (peptide)
peptide: EGHLRFLKNIILPVY
B13: ApoB100 peptide 3563.0027 (peptide)
peptide: QIHQYIMALREEYFD
B14: ApoB100 peptide 3563.0008 (peptide)
peptide: VGSKLIVAMSSWLQK
notes: agrees with the claims
B15: ApoB100 peptide 3563.0028 (peptide)
peptide: KIVSLIKNLLVALKD
B16: ApoB100 peptide 3563.0017 (peptide)
peptide: LEVLNFDFQANAQLS
notes: agrees with the claims
B17: ApoB100 peptide 3563.0024 (peptide)
peptide: QEVFKAIQSLKTTEV
B18: ApoB100 peptide 3563.0004 (peptide)
peptide: DKRLAAYLMLMRSPS
B19: ApoB100 peptide 3563.0012 (peptide)
peptide: LSQLQTYMIQFDQYI
B20: ApoB100 peptide 3563.001 (peptide)
peptide: PALLALLALPALLLL
notes: label printed as 3563.001
B21: ApoB100 peptide 3563.0005 (peptide)
peptide: TLTAFGFASADLIEI
B22: ApoB100 peptide 3563.0005 (peptide)
peptide: TLTAFGFASADLIEI
B23: ApoB100 peptide 3563.0009 (peptide)
peptide: IKHIYAISSAALSAS
notes: also called p9; P9
B24: ApoB100 peptide 3563.0012 (peptide)
peptide: LSQLQTYMIQFDQYI
B25: ApoB100 peptide 3563.0020 (peptide)
peptide: RGLKLATALSLSNKF
B26: ApoB100 peptide 3563.0015 (peptide)
peptide: LIINWLQEALSSASL
B27: ApoB100 peptide 3563.0023 (peptide)
peptide: ILFSYFQDLVITLPF
B28: ApoB100 peptide 3563.0003 (peptide)
peptide: QELLDIANYLMEQIQ
B29: ApoB100 peptide 3563.0028 (peptide)
peptide: KIVSLIKNLLVALKD
B30: ApoB100 peptide 3563.0008 (peptide)
peptide: VGSKLIVAMSSWLQK

Usually IC50 stands for the concentration at which inhibition is half-maximal. Low readings indicate greater potency in that assay, high ones weaker potency in that assay.

The target in one experiment is T3, HLA-DQ DQB1*06:02 (human).
T3 construct: its preparation is not described
Nature of the experiment: competition assay.
For the molecule B1, the IC50 turned out to be 895 nM.

For another experiment, the target named is T1, HLA-DP DPB1*02:01. The experiment can be described thus: competition assay.
In turn, B2 gave a half-maximal inhibitory concentration (IC50) of 456 nM.

Take B3: the half-inhibitory concentration (IC50) came out at 9070 nM.

Molecule B4 showed a half-maximal inhibitory concentration (IC50) of 1780 nM.

The molecule B5 yielded an IC50 of 12 nM. This IC50 lies about 150-fold lower than the previous one.

Take B6: the 50% inhibitory concentration (IC50) turned out to be 40 nM.

The molecule B7 came in with a half-maximal inhibitory concentration (IC50) of 58 nM. This IC50 and that of the molecule before are within 1.5-fold of each other.

In turn, B8 came in with an IC50 of 23200 nM.

B1 gave a half-inhibitory concentration (IC50) of 11 nM.

For B9, the 50% inhibitory concentration (IC50) was found to be 3.3 nM.

Take B10: the IC50 was 16300 nM.

Molecule B11 displayed an IC50 of 96 nM.

B12 returned an IC50 of 61 nM.

Turning to B13, the IC50 was determined as 80 nM. The IC50 values of the last two molecules are within 1.5-fold of each other.

For B14, the IC50 stood at 128 nM.

B15: the IC50 was 657 nM.

B16 showed a half-maximal inhibitory concentration (IC50) of 86 nM.

Molecule B17 registered an IC50 of 200 nM.

As to B18, the half-inhibitory concentration (IC50) was 1680 nM.

The molecule B19 yielded an IC50 of 576 nM.

A further experiment concerns the target T4, HLA-DP DPB1*14:01 (human).
T4 construct: its preparation is not described
Nature of the experiment: competition assay.
As to B1, the concentration for half-maximal inhibition (IC50) came to 126 nM.

The target in another experiment is T5, HLA-DP DPB1*05:01 (human).
T5 construct: its preparation is not described
Nature of the experiment: competition assay.
The molecule B1 gave a half-inhibitory concentration (IC50) of 1480 nM.

The next experiment deals with T2, HLA-DP DPB1*04:01. The experiment can be described thus: competition assay.
B3 registered an IC50 of 2100 nM. That is a single-digit micromolar value.

For the molecule B4, the half-inhibitory concentration (IC50) came out at 2580 nM.

B6 gave an IC50 of 32 nM.

B7 returned an IC50 of 7 nM.

B8 returned an IC50 of 25000 nM. Against the preceding molecule, the IC50 is about 3600-fold higher.

B9 displayed a half-maximal inhibitory concentration (IC50) of 2.1 nM.

For B10, the IC50 came out at 6190 nM.

On to B11, for which the IC50 is 215 nM.

In the case of B20, the IC50 came to 14000 nM.

In the case of B13, the IC50 turned out to be 817 nM.

B14 displayed an IC50 of 89 nM.

Molecule B15 yielded an IC50 of 78 nM.

As to B16, the half-inhibitory concentration (IC50) worked out at 191 nM.

B17: the half-maximal inhibitory concentration (IC50) amounted to 16 nM. Compared with the last molecule, the IC50 is about 12-fold lower.

B21 registered a half-maximal inhibitory concentration (IC50) of 490 nM.

B18: the concentration for half-maximal inhibition (IC50) worked out at 372 nM.

On to B19, for which the half-maximal inhibitory concentration (IC50) came to 951 nM.

Another experiment concerns the target T6, HLA-DRB3*02:02 (human).
T6 construct: MHC class II molecule; how it was prepared for the assay is not described
The experiment can be described thus: HLA class II competition binding assay.
For B22, the 50% inhibitory concentration (IC50) was determined as 18100 nM.

For B23, the half-maximal inhibitory concentration (IC50) turned out to be 3.4 nM.

As for B24, the concentration for half-maximal inhibition (IC50) came to 4660 nM.

Another experiment deals with T7, HLA-DRB1*13:02 (human).
T7 construct: MHC class II molecule; how it was prepared for the assay is not described
Nature of the experiment: HLA class II competition binding assay.
B22 registered a half-inhibitory concentration (IC50) of 6.1 nM. This lies in the single-digit nanomolar range.

B24 had an IC50 of 35 nM.

As for B25, the IC50 came to 1.1 nM.

Turning to B26, the half-maximal inhibitory concentration (IC50) worked out at 12 nM.

In another experiment the target is T8, HLA-DRB4*01:01 (human).
T8 construct: MHC class II molecule; how it was prepared for the assay is not described
Nature of the experiment: HLA class II competition binding assay.
In the case of B24, the IC50 was found to be 29 nM. This counts as double-digit nanomolar.

For B26, the IC50 worked out at 12 nM.

The next experiment concerns the target T9, HLA-DRB1*04:01 (human).
T9 construct: MHC class II molecule; how it was prepared for the assay is not described
The experiment can be described thus: HLA class II competition binding assay.
For the molecule B24, the IC50 is 19 nM.

In a further experiment the target is T10, HLA-DRB3*01:01 (human).
T10 construct: MHC class II molecule; how it was prepared for the assay is not described
Nature of the experiment: HLA class II competition binding assay.
In the case of B22, the half-maximal inhibitory concentration (IC50) turned out to be 99 nM.

Consider B27, for which the IC50 is 71 nM.

In the case of B24, the IC50 was found to be 1110 nM.

Regarding B28, the half-inhibitory concentration (IC50) was 88 nM.

The target of the next experiment is T11, HLA-DRB1*09:01 (human).
T11 construct: MHC class II molecule; how it was prepared for the assay is not described
Nature of the experiment: HLA class II competition binding assay.
B22: the concentration for half-maximal inhibition (IC50) came to 28 nM.

Molecule B24 showed a concentration for half-maximal inhibition (IC50) of 425 nM.

The target in the next experiment is T12, HLA-DRB5*01:01 (human).
T12 construct: MHC class II molecule; how it was prepared for the assay is not described
Nature of the experiment: HLA class II competition binding assay.
For B29, the 50% inhibitory concentration (IC50) came to 14 nM. This lies in the double-digit nanomolar range.

For the molecule B22, the 50% inhibitory concentration (IC50) stood at 276 nM.

B24 returned a 50% inhibitory concentration (IC50) of 826 nM.

Turning to B30, the half-maximal inhibitory concentration (IC50) was 23 nM.

In another experiment the target is T13, HLA-DRB1*15:01 (human).
T13 construct: MHC class II molecule; how it was prepared for the assay is not described
Nature of the experiment: HLA class II competition binding assay.
Consider B22, for which the IC50 was 25 nM.

B23: the IC50 was 1.1 nM.

B24 displayed an IC50 of 1.1 nM. That is a single-digit nanomolar value.

The target of the next experiment is T14, HLA-DRB1*12:01 (human).
T14 construct: MHC class II molecule; how it was prepared for the assay is not described
The experiment can be described thus: HLA class II competition binding assay.
B22 came in with a 50% inhibitory concentration (IC50) of 27200 nM.

For the molecule B24, the 50% inhibitory concentration (IC50) was determined as 3360 nM.

A further experiment concerns the target T15, HLA-DRB1*03:01 (human).
T15 construct: MHC class II molecule; how it was prepared for the assay is not described
Nature of the experiment: HLA class II competition binding assay.
B22 registered a half-inhibitory concentration (IC50) of 16400 nM.

In turn, B24 registered an IC50 of 20500 nM.

The target in a further experiment is T16, HLA-DRB1*01:01 (human).
T16 construct: MHC class II molecule; how it was prepared for the assay is not described
The experiment can be described thus: HLA class II competition binding assay.
In turn, B22 gave a 50% inhibitory concentration (IC50) of 60 nM.

Take B24: the 50% inhibitory concentration (IC50) was 157 nM.

A further experiment deals with T17, HLA-DRB1*07:01 (human).
T17 construct: MHC class II molecule; how it was prepared for the assay is not described
The experiment can be described thus: HLA class II competition binding assay.
B22 came in with a half-maximal inhibitory concentration (IC50) of 33 nM.

On to B23, for which the IC50 was found to be 77 nM.

On to B24, for which the half-inhibitory concentration (IC50) amounted to 14 nM. Against the preceding molecule, the IC50 is about 5.5-fold lower.

The target in the next experiment is T18, HLA-DRB1*04:05 (human).
T18 construct: MHC class II molecule; how it was prepared for the assay is not described
The experiment can be described thus: HLA class II competition binding assay.
In turn, B24 came in with an IC50 of 69 nM. This lies in the double-digit nanomolar range.
